Test results reported in patent US20260234667A1.

Biological target: human CXCR3 isoform 1 (human) (UniProt P49682)
Assay: cell-based or functional assay

Chain of UniProt P49682 (P49682 whole entry, canonical isoform): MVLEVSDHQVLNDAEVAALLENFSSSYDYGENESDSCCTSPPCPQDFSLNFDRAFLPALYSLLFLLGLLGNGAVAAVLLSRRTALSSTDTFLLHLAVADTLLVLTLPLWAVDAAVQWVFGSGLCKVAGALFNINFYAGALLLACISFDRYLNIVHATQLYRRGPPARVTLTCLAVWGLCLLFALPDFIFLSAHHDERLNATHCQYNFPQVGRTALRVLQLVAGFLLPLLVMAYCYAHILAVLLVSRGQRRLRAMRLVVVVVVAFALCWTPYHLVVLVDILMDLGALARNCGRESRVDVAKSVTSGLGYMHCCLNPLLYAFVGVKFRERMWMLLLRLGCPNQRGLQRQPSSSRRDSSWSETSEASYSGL

B1: ITAC (CXCL11) (ligand, UniProt O14625 22-94, looked up, species assumed)
C-X-C motif chemokine 11: FPMFKRGRCLCIGPGVKAVKVADIEKASIMYPSNNCDKIEVIITLKENKGQRCLNPKSKQARLIIKKVERKNF
**Q.** How did the migration of B cells to 100 ng/ml ITAC (CXCL11), fold increase against control cells turn out when B1 was run?
**A.** Its migration of B cells to 100 ng/ml ITAC (CXCL11), fold increase against control cells is 10 fold.

**Q.** And the migration of CD4 cells to 100 ng/ml ITAC (CXCL11), fold increase against control cells?
**A.** The migration of CD4 cells to 100 ng/ml ITAC (CXCL11), fold increase against control cells was > 4 fold.

**Q.** And the migration of CD8 cells to 100 ng/ml ITAC (CXCL11), fold increase against control cells?
**A.** Its migration of CD8 cells to 100 ng/ml ITAC (CXCL11), fold increase against control cells is 2.5 fold.
